The results in this text go back to paper PMC6585716 (Biopolymers, 2017).

Conditions in all cases: both partners purified
In assay [1] the target is T1, Recombinant human vascular endothelial growth factor (VEGF165) (human, UniProt P15692-4 1-191, X (detection label) on the N-terminus); disulfide bridge between the two cysteines cyclises …; C-terminal Tz4 (1,4-triazole linker) joins it to lfrew | all D-residues (printed in lowercase: l). As to the kind of experiment: not stated; titration giving EC50 ('relative affinities') of PCCs on VEGF, Figure 2A; experimental details in the Supporting Information.
T1 sequence (P15692 other isoform, or with tags, fused parts or gaps): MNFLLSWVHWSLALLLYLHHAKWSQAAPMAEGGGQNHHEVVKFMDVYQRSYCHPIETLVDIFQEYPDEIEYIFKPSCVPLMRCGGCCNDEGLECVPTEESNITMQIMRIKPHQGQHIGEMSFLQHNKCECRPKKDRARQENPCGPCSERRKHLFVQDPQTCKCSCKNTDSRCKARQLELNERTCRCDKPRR

The target of assay [2] is T1, Recombinant human vascular endothelial …. As to the kind of experiment: inhibition assay; inhibition of VEGF binding to VEGFR2 in the presence of PCCs, Figure 2B; experimental details in the Supporting Information.
For assay [3], the target named is Recombinant human vascular endothelial growth factor (VEGF165) (human, UniProt P15692-4 1-191, X (detection label) on the N-terminus; disulfide bridge between the two cysteines cyclises …; C-terminal Tz4 (1,4-triazole formed of Az4 and D-propargylglycine) joins it to lfrew | all D-res). The assay is described as follows: not stated; titration giving EC50 ('relative affinities') of PCCs on VEGF, Figure 2A; experimental details in the Supporting Information.
Sequence of Recombinant human vascular endothelial growth factor (VEGF165) (human, UniProt P15692-4 1-191, X (detection label) on the N-terminus; disulfide bridge between the two cysteines cyclises …; C-terminal Tz4 (1,4-triazole formed of Az4 and D-propargylglycine) joins it to lfrew | all D-res) (P15692 other isoform, or with tags, fused parts or gaps): as above

Non-standard residues stand in square brackets, D forms with d. No end group written: not given here. code X = not defined here

B1: Tetra-LV (X-VEPNCDIHVMWEWECFERL-Tz4-lfrew-Tz4-eeird-Tz4-qfkyr) (designed binder)
peptide 1: {code X}-VEPNCDIHVMWEWECFERL
peptide 2: [dL][dF][dR][dE][dW]
peptide 3: [dE][dE][dI][dR][dD]
peptide 4: [dQ][dF][dK][dY][dR]
modifications: cysteine pairing not given here; reading uncertain; also: chains joined via Tz4 linkers, N-terminal X not defined, triazole to a chain's N/C-terminus, triazole to a chain's N/C-terminus, triazole to a chain's N/C-terminus, printed as X-VEPNCDIHVMWEWECFERL-Tz4-lfrew-Tz4-eeird-Tz4-qfkyr
notes: also called tetraligand
Broadly, the EC50 is the midpoint of the concentration-response curve. As usually defined, the IC50 is the point on the concentration scale where inhibition reaches its midpoint. Regarding B1, the EC50 in assay [1] was determined as 6.1 ± 0.2 nM. The concentration for half-maximal inhibition (IC50) in assay [2] amounted to 0.74 ± 0.05 nM.

B2: Tri-LV (X-VEPNCDIHVMWEWECFERL-Tz4-lfrew-Tz4-eeird) (designed binder)
peptide 1: {code X}-VEPNCDIHVMWEWECFERL
peptide 2: [dL][dF][dR][dE][dW]
peptide 3: [dE][dE][dI][dR][dD]
modifications: cysteine pairing not given here; reading uncertain; also: chains joined via Tz4 linkers, N-terminal X not defined, triazole to a chain's N/C-terminus, triazole to a chain's N/C-terminus, printed as X-VEPNCDIHVMWEWECFERL-Tz4-lfrew-Tz4-eeird
notes: also called consensus triligand; 64Cu-DOTA-Tri-LV (N-terminal DOTA conjugate, in vivo)
Turning to B2, the 50% inhibitory concentration (IC50) in assay [2] stood at 2.6 ± 0.5 nM.

B3: Bi-LV (X-VEPNCDIHVMWEWECFERL-Tz4-lfrew) (designed binder)
peptide 1: {code X}-VEPNCDIHVMWEWECFERL
peptide 2: [dL][dF][dR][dE][dW]
modifications: not fully specified; printed as X-VEPNCDIHVMWEWECFERL-Tz4-lfrew; cysteine pairing not given here; reading uncertain; also: chain 1 C-terminus joined to chain 2 N-terminus via Tz4
notes: also called anti-VEGF biligand PCC
As to B3, the “fold improvement in EC50 relative to AnchorV” value in assay [3] was determined as 4.5 fold.
